B1: LINE1-full (parent)
chain: UACGUAGGUGGUUUUCCCCUGAUAGUGCUAAGGGGGCCUGGAAGUUUGGACUGGGCAGAGCUCAACACAGCGUGGCAAAGUGGCUGUGGCUAGACUGCCUCUCUGGAUUCCUCGUCACUCAGCAGGGCAUCUCUGAGAGAAAUGCC

Variants of: B1
Test: self-cleavage, relative activity (ratio to wild type); higher = more cleavage; in vitro, sequencing; the parent is a self-cleaving ribozyme

First: UACGUAGGUGGUUUUCCCCUGAUAGUGCUAAGGGGGCCUGGAAGUUUGGACUGGGCAGAGCUCAACACAGCGUGGCAAAGUGGCUGUGGCUAGGCUGCCUCUCUGGAUUCCUCGUCACUCAGCAGGGCAUCUCUGAGAGAAAUGCC [A94G]
Second: UACGUAGGUGGUUUUCCCCUGAUAGUGCUAAGGGGGCCUGGAAGUUUGGACUGGGCAGAGCUCAACACGGCGUGGCAAAGUGGCUGUGGCUAGACUGCCUCUCUGGAAUCCUCGUCACUCAGCAGGGCAUCUCUGAGAGAAAUGCC [A69G U108A]
The self-cleavage of the first is higher: 0.31 for the first, 0.07 for the second.

Going from UACGUAGGUGGUUUUCCCCUGAUAGUGCUAAGGGGGCCUGGAAGUUUGGACUGGGCAGAGCUCAACACAGCGUGGCAAAGUGGCCGUGGCUAGACUGCCUCUCUGGAUUCCUCGUCACUCAGCAGGGCAACUCUGAGAGAAAUGCC [U85C U130A] to UACGUAGGUGGUUUUCCCCUGAUAGUGCUAAGGGGGCCUGGAAGUUUGGACUGGGCAGAGCUCAACACAGCGUGGCAAAGUGGCUGUGGCUAGACUGCCUCUCCGGAUUCCUCGUCACUCAGCAGGGCAUCUCUGAGAGAAAUUCC [U104C G144U], the self-cleavage rises from 0.35 to 2.06.

Going from UACGUAGGUGGUUUUCCCCCGAUAGUGCUAAGGGGGCCUGGAAGUUUGGACUGGGCAGAGCUCAACACAGCGUGGCAAAGCGGCUGUGGCUAGACUGCCUCUCUGGAUUCCUCGUCACUCAGCAGGGCAUCUCUGAGAGAAAUGCC [U20C U81C] to UACGUAGGUGGUUUUCCCCUGAUAGUGCUAAGGGGGCCUGGAUGUUUGGACUGGGCAGAGCUCAACGCAGCGUGGCAAAGUGGCUGUGGCUAGACUGCCUCUCUGGAUUCCUCGUCACUCAGCAGGGCAUCUCUGAGAGAAAUGCC [A43U A67G], the self-cleavage falls from 1.13 to 0.56.

Going from UACGUAGGUGGUUUUCCCCUGAUAGUGCUGAGGGGGCCUGGAAGUUUGGACUGGGCAGAGCUCAACACAGCGUGGCAAAGUGGCAGUGGCUAGACUGCCUCUCUGGAUUCCUCGUCACUCAGCAGGGCAUCUCUGAGAGAAAUGCC [A30G U85A] to UACGUGGGUGGUUUUCCCCUGUUAGUGCUAAGGGGGCCUGGAAGUUUGGACUGGGCAGAGCUCAACACAGCGUGGCAAAGUGGCUGUGGCUAGACUGCCUCUCUGGAUUCCUCGUCACUCAGCAGGGCAUCUCUGAGAGAAAUGCC [A6G A22U], the self-cleavage rises from 0.32 to 1.11.

First: UAUGUAGGUGGUUUUCCCCUGAUAGCGCUAAGGGGGCCUGGAAGUUUGGACUGGGCAGAGCUCAACACAGCGUGGCAAAGUGGCUGUGGCUAGACUGCCUCUCUGGAUUCCUCGUCACUCAGCAGGGCAUCUCUGAGAGAAAUGCC [C3U U26C]
Second: UACGUAGGUGGUUUUCCCCUGAUAGUGCUAAGGGGGCCUGGAAGUUUGGACUGGGCAGAGCUCAACACAGCGUGGCAAAGUGGCCGUGGCUAGACUGCCUCUCUGGAUUCCUCGUCACUCAGCAGGCCAUCUCUGAGAGAAAUGCC [U85C G127C]
The self-cleavage of the first is higher: 1.01 for the first, 0.24 for the second.

Compared with UACGUAGGUGGUUUUCCCCUUAUAGUGCUAAGGGGGCCUGGAAGCUUGGACUGGGCAGAGCUCAACACAGCGUGGCAAAGUGGCUGUGGCUAGACUGCCUCUCUGGAUUCCUCGUCACUCAGCAGGGCAUCUCUGAGAGAAAUGCC [G21U U45C], UACGUAGGUGGUUUUCCCCUGAUAGUGCUAAGGGGGCCUGGAAGUUUGGACUGGGCAUAGCUCAACACAGCGUGGCAAAGUGGCUGUGGCUAGACUGCCUCUCUGGAUUCCUCGUCACUCAGCAGGGCAUCUCUGAGAGGAAUGCC [G58U A140G] is lower in self-cleavage: 1.44 for the first, 0.05 for the second.

Compared with UACGUAGGUGGUUUUCCCCUGAUAGUGCUAAGGGGGCCUGGAAGUUUGGACUGGGCAGAGCUCAACACAGCGUGGCAAAGUGGCAGUGGCUAGACUGCCUCUCUGGAUUCCUCGUCACUCAGCAGGGCAUCUCUGUGAGAAAUGCC [U85A A136U], UACGUAGGUGGUUUUCCCCUGAUAGUGCUAAGGGGGCCUGGAAGUUUGGACUGGGCAGAGCUCAACACAGCGUGGCAAGGUGGCUGUGGCUAGACUGCCUCUCUGGAUUCCUCGUCACUCAGCAGGGCGUCUCUGAGAGAAAUGCC [A79G A129G] is higher in self-cleavage: 0.19 for the first, 1.62 for the second.

First: UACGUAGGUGGUUUUCCCCUGAUAGUGCUAAGGGGGCCUGGAAGUUUGGACCGGGCAGAGCUCUACACAGCGUGGCAAAGUGGCUGUGGCUAGACUGCCUCUCUGGAUUCCUCGUCACUCAGCAGGGCAUCUCUGAGAGAAAUGCC [U52C A64U]
Second: UACGUAGGUGGUUUUCCCCUGAUAGUGCUAAGGGGGCCUGGAAGUUUGGACUGGGCAGAGCUCAACACAGCGUGGCAAAGUGGCUGUGGCUAGACUGCCUCUCUAGACUCCUCGUCACUCAGCAGGGCAUCUCUGAGAGAAAUGCC [G105A U108C]
The self-cleavage of the first is lower: 0.45 for the first, 1.56 for the second.

Going from UACGUAGGUGGUUUUCCCCUGAUAGUGCUAAGGGGGCCUGGAAGUUUGGACUGGGCAGAGCUCAACACAGCGUGGCAAAGUGGCUGUGGCUAGACUGCCUCUCUGGAUUCCUCGUCACUCAGCAGGGCAUCUCUGAGAGAACAGCC [A142C U143A] to UACGUAGGUGGUUUUCCCCUGAUAGUGCUAAGGGGGCCUGGAAGUUUGGACUGGGCAGAGCUCAACACAGCGUGGCAAAGAGGCUGUGGCUAGACUGCCUCUCUGGAUUCCUCGUCACUCAGCAGGGCAUCUCUGAGCGAAAUGCC [U81A A138C], the self-cleavage rises from 1.41 to 2.3.

Going from UAUGUAGGUGGUUUUCCCCUGAUAGUGCUAAGGGGGCCUGGAAGUUUGGACUGGGCAGAGCUCGACACAGCGUGGCAAAGUGGCUGUGGCUAGACUGCCUCUCUGGAUUCCUCGUCACUCAGCAGGGCAUCUCUGAGAGAAAUGCC [C3U A64G] to UACGUAGGUGGUUUUCCCCUGAUAGUGCUAAGGGGGCCUGGAAGUUUGGACUGGGCAGAGCUCAACACAGCGUGGCAAAGGGGCUGUGGCUAGACUGCCUCUCUGGAUUCCUCGUCACUCAGCAGGGCAUCUCUGGGAGAAAUGCC [U81G A136G], the self-cleavage rises from 0.21 to 1.65.
